{"source": "patent US20220127313A1", "binders": {"B1": {"name": "NiPp polypeptide (Niban phosphopeptide), …(pS)AILPG (peptide)", "peptide": "YARAAARQARASPAARRA[pS]AILPG"}}, "test_in_all_cases": "cell-based or functional assay", "key": {"[1]": {"biological_target": "p38 MAPK β isoform, Q15759", "sequence (Q15759 whole entry, canonical isoform)": "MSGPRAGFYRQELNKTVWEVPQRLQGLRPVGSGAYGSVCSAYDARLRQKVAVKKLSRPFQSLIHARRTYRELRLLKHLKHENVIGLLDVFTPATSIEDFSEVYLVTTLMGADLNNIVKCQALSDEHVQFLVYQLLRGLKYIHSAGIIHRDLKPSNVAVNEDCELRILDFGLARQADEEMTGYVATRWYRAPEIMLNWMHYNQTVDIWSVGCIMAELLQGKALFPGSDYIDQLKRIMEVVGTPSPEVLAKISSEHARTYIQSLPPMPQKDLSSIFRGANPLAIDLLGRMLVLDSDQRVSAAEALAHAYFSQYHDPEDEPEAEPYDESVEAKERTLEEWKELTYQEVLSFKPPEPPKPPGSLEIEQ"}, "[2]": {"biological_target": "p38 MAPK δ isoform, O15264", "sequence (O15264 whole entry, stated change not applied, canonical isoform)": "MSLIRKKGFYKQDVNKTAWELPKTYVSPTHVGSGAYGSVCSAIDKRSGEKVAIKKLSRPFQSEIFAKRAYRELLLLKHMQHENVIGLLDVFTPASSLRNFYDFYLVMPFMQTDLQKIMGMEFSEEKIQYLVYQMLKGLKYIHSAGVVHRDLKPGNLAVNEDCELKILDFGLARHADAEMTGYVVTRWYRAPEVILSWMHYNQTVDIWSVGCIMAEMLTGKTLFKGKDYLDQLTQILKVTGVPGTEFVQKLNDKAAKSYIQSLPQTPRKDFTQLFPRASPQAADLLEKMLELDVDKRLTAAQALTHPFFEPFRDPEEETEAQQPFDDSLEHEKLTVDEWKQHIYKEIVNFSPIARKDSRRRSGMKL"}, "[3]": {"biological_target": "p38 MAPK γ isoform, P53778", "sequence (P53778 whole entry, canonical isoform)": "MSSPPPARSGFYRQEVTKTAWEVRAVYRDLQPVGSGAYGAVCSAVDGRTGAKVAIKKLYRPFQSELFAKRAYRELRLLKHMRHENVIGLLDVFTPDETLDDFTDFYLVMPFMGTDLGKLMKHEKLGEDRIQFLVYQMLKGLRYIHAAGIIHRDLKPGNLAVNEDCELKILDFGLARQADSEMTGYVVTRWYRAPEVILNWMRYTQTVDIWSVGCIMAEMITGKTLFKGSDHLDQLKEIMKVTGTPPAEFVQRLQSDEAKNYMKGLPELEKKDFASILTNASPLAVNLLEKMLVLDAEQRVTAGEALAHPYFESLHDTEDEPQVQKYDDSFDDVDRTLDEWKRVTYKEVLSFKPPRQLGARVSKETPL"}}, "note": "Non-standard residues stand in square brackets, D forms with d. No end group written: not given here. pS = N[C@@H](COP(=O)(O)O)C(=O)O", "data": [{"binder": "B1", "values": [{"measurement": "% inhibition in kinase profiling screen, NiPp at 100 µM", "setting": "[1]", "result": 5, "unit": "%"}, {"measurement": "% inhibition in kinase profiling screen, NiPp at 100 µM", "setting": "[2]", "result": 3, "unit": "%"}, {"measurement": "% inhibition in kinase profiling screen, NiPp at 100 µM", "setting": "[3]", "result": 3, "unit": "%"}]}]}
